These are literature values, as cited in US20090068653A1, “BIOCHEMICAL AND GENETIC ANALYSIS FOR PREDICTION OF BREAST CANCER RISK” (priority 2006, published 2009).

Where two headings read alike, the source gives them in different places.

For data set [1] the following is noted: cited from earlier work.
For the next data set, the system named is renal cancer. The settings on record: hamster, in vivo; cited from earlier work.
The test system of a further data set is CYP1B1. The conditions noted are these: cited from earlier work.

As to `CC/C(=C(\c1ccccc1)c1ccc(OCCNC)cc1)c1ccccc1` [N-desmethyl tamoxifen], the “average steady-state plasma concentration” value in data set [1] (10 mg tamoxifen twice daily for 3 months, patients) is 336 ng/mL; in data set [1] (20 mg tamoxifen once daily for 3 months), 353 ng/mL. The “time to steady state concentrations after initiation of therapy” value in data set [1] (in vivo) was “about 8 weeks”. Besides, the “average peak plasma concentration” value in data set [1] (single oral dose of 20 mg tamoxifen) is 15 ng/mL. The half-life result in data set [1] (suggested by time to steady state) is given as “approximately 14 days”.

For `C[C@]12CC[C@@H]3c4cc(O)c(O)cc4CC[C@H]3[C@@H]1CCC2=O` [2-OHE1], the “induction of renal cancer” value in the data set on renal cancer was “not”.

B1: 48Gly-119Ala-432Val-453Asn: CYP1B1 variant enzyme (protein, UniProt Q16678 1-543, looked up, variant R48G)
Cytochrome P450 1B1: MGTSLSPNDPWPLNPLSIQQTTLLLLLSVLATVHVGQRLLRQRRRQLGSAPPGPFAWPLIGNAAAVGQAAHLSFARLARRYGDVFQIRLGSCPIVVLNGERAIHQALVQQGSAFADRPAFASFRVVSGGRSMAFGHYSEHWKVQRRAAHSMMRNFFTRQPRSRQVLEGHVLSEARELVALLVRGSADGAFLDPRPLTVVAVANVMSAVCFGCRYSHDDPEFRELLSHNEEFGRTVGAGSLVDVMPWLQYFPNPVRTVFREFEQLNRNFSNFILDKFLRHCESLRPGAAPRDMMDAFILSAEKKAAGDSHGGGARLDLENVPATITDIFGASQDTLSTALQWLLLLFTRYPDVQTRVQAELDQVVGRDRLPCMGDQPNLPYVLAFLYEAMRFSSFVPVTIPHATTANTSVLGYHIPKDTVVFVNQWSVNHDPLKWPNPENFDPARFLDKDGLINKDLTSRVMIFSVGKRRCIGEELSKMQLFLFISILAHQCDFRANPNEPAKMNFSYGLTIKPKSFKVNVTLRESMELLDSAVQNLQAKETCQ
By Km is commonly meant the substrate concentration at which the rate is half of its maximum. Turning to B1, the Michaelis-Menten constant (Km) is 12 µM with CYP1B1 (reaction E2 → 2-OHE2, CYP1B1) and 6.6 µM with CYP1B1 (reaction E2 → 4-OHE2, CYP1B1).

B2: 48Gly-119Ala-432Val-453Ser: CYP1B1 variant enzyme (protein, UniProt Q16678 1-543, looked up, variant R48G N453S)
Cytochrome P450 1B1: MGTSLSPNDPWPLNPLSIQQTTLLLLLSVLATVHVGQRLLRQRRRQLGSAPPGPFAWPLIGNAAAVGQAAHLSFARLARRYGDVFQIRLGSCPIVVLNGERAIHQALVQQGSAFADRPAFASFRVVSGGRSMAFGHYSEHWKVQRRAAHSMMRNFFTRQPRSRQVLEGHVLSEARELVALLVRGSADGAFLDPRPLTVVAVANVMSAVCFGCRYSHDDPEFRELLSHNEEFGRTVGAGSLVDVMPWLQYFPNPVRTVFREFEQLNRNFSNFILDKFLRHCESLRPGAAPRDMMDAFILSAEKKAAGDSHGGGARLDLENVPATITDIFGASQDTLSTALQWLLLLFTRYPDVQTRVQAELDQVVGRDRLPCMGDQPNLPYVLAFLYEAMRFSSFVPVTIPHATTANTSVLGYHIPKDTVVFVNQWSVNHDPLKWPNPENFDPARFLDKDGLISKDLTSRVMIFSVGKRRCIGEELSKMQLFLFISILAHQCDFRANPNEPAKMNFSYGLTIKPKSFKVNVTLRESMELLDSAVQNLQAKETCQ
On to B2, for which the Michaelis-Menten constant (Km) in the data set with CYP1B1 (reaction E2 → 2-OHE2, CYP1B1) is 75 µM; in the data set with CYP1B1 (reaction E2 → 4-OHE2, CYP1B1) it was 28 µM.

B3: 48Gly-119Ser-432Val-453Asn: CYP1B1 variant enzyme (protein, UniProt Q16678 1-543, looked up, variant R48G A119S)
Cytochrome P450 1B1: MGTSLSPNDPWPLNPLSIQQTTLLLLLSVLATVHVGQRLLRQRRRQLGSAPPGPFAWPLIGNAAAVGQAAHLSFARLARRYGDVFQIRLGSCPIVVLNGERAIHQALVQQGSAFADRPSFASFRVVSGGRSMAFGHYSEHWKVQRRAAHSMMRNFFTRQPRSRQVLEGHVLSEARELVALLVRGSADGAFLDPRPLTVVAVANVMSAVCFGCRYSHDDPEFRELLSHNEEFGRTVGAGSLVDVMPWLQYFPNPVRTVFREFEQLNRNFSNFILDKFLRHCESLRPGAAPRDMMDAFILSAEKKAAGDSHGGGARLDLENVPATITDIFGASQDTLSTALQWLLLLFTRYPDVQTRVQAELDQVVGRDRLPCMGDQPNLPYVLAFLYEAMRFSSFVPVTIPHATTANTSVLGYHIPKDTVVFVNQWSVNHDPLKWPNPENFDPARFLDKDGLINKDLTSRVMIFSVGKRRCIGEELSKMQLFLFISILAHQCDFRANPNEPAKMNFSYGLTIKPKSFKVNVTLRESMELLDSAVQNLQAKETCQ
On to B3, for which the Km is 13 µM in the data set on CYP1B1 (reaction E2 → 2-OHE2, CYP1B1) and 5.5 µM in the data set on CYP1B1 (reaction E2 → 4-OHE2, CYP1B1).

B4: 48Arg-119Ala-432Val-453Ser: CYP1B1 variant enzyme (protein, UniProt Q16678 1-543, looked up, variant N453S)
Cytochrome P450 1B1: MGTSLSPNDPWPLNPLSIQQTTLLLLLSVLATVHVGQRLLRQRRRQLRSAPPGPFAWPLIGNAAAVGQAAHLSFARLARRYGDVFQIRLGSCPIVVLNGERAIHQALVQQGSAFADRPAFASFRVVSGGRSMAFGHYSEHWKVQRRAAHSMMRNFFTRQPRSRQVLEGHVLSEARELVALLVRGSADGAFLDPRPLTVVAVANVMSAVCFGCRYSHDDPEFRELLSHNEEFGRTVGAGSLVDVMPWLQYFPNPVRTVFREFEQLNRNFSNFILDKFLRHCESLRPGAAPRDMMDAFILSAEKKAAGDSHGGGARLDLENVPATITDIFGASQDTLSTALQWLLLLFTRYPDVQTRVQAELDQVVGRDRLPCMGDQPNLPYVLAFLYEAMRFSSFVPVTIPHATTANTSVLGYHIPKDTVVFVNQWSVNHDPLKWPNPENFDPARFLDKDGLISKDLTSRVMIFSVGKRRCIGEELSKMQLFLFISILAHQCDFRANPNEPAKMNFSYGLTIKPKSFKVNVTLRESMELLDSAVQNLQAKETCQ
In the case of B4, the Km is 49 µM in the data set on CYP1B1 (reaction E2 → 2-OHE2, CYP1B1) and 21 µM in the data set on CYP1B1 (reaction E2 → 4-OHE2, CYP1B1).

B5: 48Arg-119Ser-432Val-453Asn: CYP1B1 variant enzyme (protein, UniProt Q16678 1-543, looked up, variant A119S)
Cytochrome P450 1B1: MGTSLSPNDPWPLNPLSIQQTTLLLLLSVLATVHVGQRLLRQRRRQLRSAPPGPFAWPLIGNAAAVGQAAHLSFARLARRYGDVFQIRLGSCPIVVLNGERAIHQALVQQGSAFADRPSFASFRVVSGGRSMAFGHYSEHWKVQRRAAHSMMRNFFTRQPRSRQVLEGHVLSEARELVALLVRGSADGAFLDPRPLTVVAVANVMSAVCFGCRYSHDDPEFRELLSHNEEFGRTVGAGSLVDVMPWLQYFPNPVRTVFREFEQLNRNFSNFILDKFLRHCESLRPGAAPRDMMDAFILSAEKKAAGDSHGGGARLDLENVPATITDIFGASQDTLSTALQWLLLLFTRYPDVQTRVQAELDQVVGRDRLPCMGDQPNLPYVLAFLYEAMRFSSFVPVTIPHATTANTSVLGYHIPKDTVVFVNQWSVNHDPLKWPNPENFDPARFLDKDGLINKDLTSRVMIFSVGKRRCIGEELSKMQLFLFISILAHQCDFRANPNEPAKMNFSYGLTIKPKSFKVNVTLRESMELLDSAVQNLQAKETCQ
On to B5, for which the Michaelis-Menten constant (Km) with CYP1B1 (reaction E2 → 2-OHE2, CYP1B1) is 19 µM; in the data set with CYP1B1 (reaction E2 → 4-OHE2, CYP1B1) it was 9.3 µM.

B6: 48Gly-119Ser-432Val-453Ser: CYP1B1 variant enzyme (protein, UniProt Q16678 1-543, looked up, variant R48G A119S N453S)
Cytochrome P450 1B1: MGTSLSPNDPWPLNPLSIQQTTLLLLLSVLATVHVGQRLLRQRRRQLGSAPPGPFAWPLIGNAAAVGQAAHLSFARLARRYGDVFQIRLGSCPIVVLNGERAIHQALVQQGSAFADRPSFASFRVVSGGRSMAFGHYSEHWKVQRRAAHSMMRNFFTRQPRSRQVLEGHVLSEARELVALLVRGSADGAFLDPRPLTVVAVANVMSAVCFGCRYSHDDPEFRELLSHNEEFGRTVGAGSLVDVMPWLQYFPNPVRTVFREFEQLNRNFSNFILDKFLRHCESLRPGAAPRDMMDAFILSAEKKAAGDSHGGGARLDLENVPATITDIFGASQDTLSTALQWLLLLFTRYPDVQTRVQAELDQVVGRDRLPCMGDQPNLPYVLAFLYEAMRFSSFVPVTIPHATTANTSVLGYHIPKDTVVFVNQWSVNHDPLKWPNPENFDPARFLDKDGLISKDLTSRVMIFSVGKRRCIGEELSKMQLFLFISILAHQCDFRANPNEPAKMNFSYGLTIKPKSFKVNVTLRESMELLDSAVQNLQAKETCQ
With B6, the Km in the data set with CYP1B1 (reaction E2 → 2-OHE2, CYP1B1) is 34 µM; with CYP1B1 (reaction E2 → 4-OHE2, CYP1B1) it was 15 µM.

B7: 48Arg-119Ser-432Val-453Ser: CYP1B1 variant enzyme (protein, UniProt Q16678 1-543, looked up, variant A119S N453S)
Cytochrome P450 1B1: MGTSLSPNDPWPLNPLSIQQTTLLLLLSVLATVHVGQRLLRQRRRQLRSAPPGPFAWPLIGNAAAVGQAAHLSFARLARRYGDVFQIRLGSCPIVVLNGERAIHQALVQQGSAFADRPSFASFRVVSGGRSMAFGHYSEHWKVQRRAAHSMMRNFFTRQPRSRQVLEGHVLSEARELVALLVRGSADGAFLDPRPLTVVAVANVMSAVCFGCRYSHDDPEFRELLSHNEEFGRTVGAGSLVDVMPWLQYFPNPVRTVFREFEQLNRNFSNFILDKFLRHCESLRPGAAPRDMMDAFILSAEKKAAGDSHGGGARLDLENVPATITDIFGASQDTLSTALQWLLLLFTRYPDVQTRVQAELDQVVGRDRLPCMGDQPNLPYVLAFLYEAMRFSSFVPVTIPHATTANTSVLGYHIPKDTVVFVNQWSVNHDPLKWPNPENFDPARFLDKDGLISKDLTSRVMIFSVGKRRCIGEELSKMQLFLFISILAHQCDFRANPNEPAKMNFSYGLTIKPKSFKVNVTLRESMELLDSAVQNLQAKETCQ
For the molecule B7, the Km is 36 µM with CYP1B1 (reaction E2 → 2-OHE2, CYP1B1) and 17 µM with CYP1B1 (reaction E2 → 4-OHE2, CYP1B1).

B8: 48Arg-119Ala-432Val-453Asn (wt): wild-type CYP1B1 enzyme (protein, UniProt Q16678 1-543, looked up)
Cytochrome P450 1B1: MGTSLSPNDPWPLNPLSIQQTTLLLLLSVLATVHVGQRLLRQRRRQLRSAPPGPFAWPLIGNAAAVGQAAHLSFARLARRYGDVFQIRLGSCPIVVLNGERAIHQALVQQGSAFADRPAFASFRVVSGGRSMAFGHYSEHWKVQRRAAHSMMRNFFTRQPRSRQVLEGHVLSEARELVALLVRGSADGAFLDPRPLTVVAVANVMSAVCFGCRYSHDDPEFRELLSHNEEFGRTVGAGSLVDVMPWLQYFPNPVRTVFREFEQLNRNFSNFILDKFLRHCESLRPGAAPRDMMDAFILSAEKKAAGDSHGGGARLDLENVPATITDIFGASQDTLSTALQWLLLLFTRYPDVQTRVQAELDQVVGRDRLPCMGDQPNLPYVLAFLYEAMRFSSFVPVTIPHATTANTSVLGYHIPKDTVVFVNQWSVNHDPLKWPNPENFDPARFLDKDGLINKDLTSRVMIFSVGKRRCIGEELSKMQLFLFISILAHQCDFRANPNEPAKMNFSYGLTIKPKSFKVNVTLRESMELLDSAVQNLQAKETCQ
Turning to B8, the Km in the data set on CYP1B1 (reaction E2 → 2-OHE2, CYP1B1) was 24 µM; in the data set on CYP1B1 (reaction E2 → 4-OHE2, CYP1B1), 14 µM.
